These results are taken from PMC6784197.

What is called koff is the first-order rate constant of dissociation. In general, kon refers to the second-order rate constant of association.

The target of test [1] is T1, hCD138 (human Syndecan-1), extracellular domain (human) (UniProt P18827).
T1 sequence: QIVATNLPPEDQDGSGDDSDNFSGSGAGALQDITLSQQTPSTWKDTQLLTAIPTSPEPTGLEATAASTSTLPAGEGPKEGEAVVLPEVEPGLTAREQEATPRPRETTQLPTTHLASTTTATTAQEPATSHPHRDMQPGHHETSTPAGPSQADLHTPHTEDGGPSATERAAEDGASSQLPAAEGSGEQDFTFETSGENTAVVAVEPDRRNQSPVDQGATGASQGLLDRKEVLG
Put plainly: SPR; bivalent (avidity) set-up: CD138 amine-coupled to CM5 chip (240 RU), IgG as analyte 33-300 nM; Biacore T200, HBS-P+ pH 7.4, 25 °C; 1:1 Langmuir model. On the technique in general: Surface plasmon resonance follows binding to a sensor surface in real time, without labels.

For another test, the target named is <CD138> Ha-La. Put plainly: SPR; monovalent (affinity) set-up: antibody captured via anti-hFc on CM5 chip, hCD138 as analyte 66-600 nM; Biacore T200, HBS-P+ pH 7.4, 25 °C; 1:1 Langmuir model.
A further test addresses <CD138> Ha-Lg. Described as above.
For the next test, the target named is <CD138> Ha-Lw. The description is as above.
The target in another test is <CD138> Hb-La. The description is as above.
In another test the target is <CD138> Hb-Lg. The description is as above.
The next test addresses <CD138> Hb-Lw. Described as above.
A further test concerns the target <CD138> Hw-La. The test is described as above.
Test [2] deals with <CD138> Hw-Lw (parent IgG). The test is described as above.
The next test concerns the target <CD138> Hg-Lw. Description: SPR; monovalent (affinity): anti-CD138 IgG variants (30 nM) captured via anti-hFc on CM5; hCD138 as analyte, 66-600 nM; HBS-P+ pH 7.4, 25 °C; 1:1 Langmuir model; Biacore T200.

B1: <CD138> Hb-Lg (antibody, V domains shown)
VH: QVQLQQSGSELMMPGASVKISCKATGYTFTGYWIEWVKQRPGHGLEWIGEILPGTGRTIYNEKFKGKATFTADISSNTVQMQLSSLTSEDSAVYYCARRDYYGNFYYAMDYWGQGTSVTVSS
VL: DIQMTQSTSSLSASLGDRVTISCSASQGISNYLNWYQQKPDGTVELLIYYTSSLHSGVPSRFSGSGSGTDYSLTISNLEPEDIGTYYCQQYSKLPRTFGGGTKLEIK
B1: in test [1], the Kd stood at 2.4 nM, the koff came out at 0.0005 s⁻¹ and the kon was found to be 390000 M⁻¹ s⁻¹.

B2: <CD138> Ha-La (antibody, V domains shown)
VH: QVQLQQSGSELMMPGASVKISCKATGYTFSNYWIEWVKQRPGHGLEWIGEILPGTGSTIYNEKFKGKATFTADISSNTVQMQLSSLTSEDSAVYYCARRDYYGNFYYAMDYWGQGTSVTVSS
VL: DIQMTQSTSSLSASLGDRVTISCSASQGINNYLNWYQQKPDGTVELLIYYTSTLHSGVPSRFSGSGSGTDYSLTISNLEPEDIGTYYCQQYSKLPRTFGGGTKLEIK
Regarding B2, in [1], the Kd was found to be 0.4 nM, the koff stood at 6.4e-05 s⁻¹ and the kon is 160000 M⁻¹ s⁻¹.

B3: <CD138> Hg-Lw (antibody, V domains shown)
VH: QVQLQQSGSELMMPGASVKISCKATGYTFTGYWIEWVKQRPGHGLEWIGEILPGSGSTNYNEKFKGKATFTADISSNTVQMQLSSLTSEDSAVYYCARRDYYGNFYYAMDYWGQGTSVTVSS
VL: DIQMTQSTSSLSASLGDRVTISCSASQGINNYLNWYQQKPDGTVELLIYYTSTLQSGVPSRFSGSGSGTDYSLTISNLEPEDIGTYYCQQYSKLPRTFGGGTKLEIK
Take B3: in [1], the Kd is 230 nM, the koff came out at 0.051 s⁻¹ and the kon was 210000 M⁻¹ s⁻¹.

B4: <CD138> Ha-Lw (antibody, V domains shown)
VH: QVQLQQSGSELMMPGASVKISCKATGYTFSNYWIEWVKQRPGHGLEWIGEILPGTGSTIYNEKFKGKATFTADISSNTVQMQLSSLTSEDSAVYYCARRDYYGNFYYAMDYWGQGTSVTVSS
VL: DIQMTQSTSSLSASLGDRVTISCSASQGINNYLNWYQQKPDGTVELLIYYTSTLQSGVPSRFSGSGSGTDYSLTISNLEPEDIGTYYCQQYSKLPRTFGGGTKLEIK
On to B4, for which, in test [1], the Kd worked out at 0.42 nM, the dissociation rate constant (koff) was 7.1e-05 s⁻¹ and the kon turned out to be 170000 M⁻¹ s⁻¹.

B5: <CD138> Ha-Lg (antibody, V domains shown)
VH: QVQLQQSGSELMMPGASVKISCKATGYTFSNYWIEWVKQRPGHGLEWIGEILPGTGSTIYNEKFKGKATFTADISSNTVQMQLSSLTSEDSAVYYCARRDYYGNFYYAMDYWGQGTSVTVSS
VL: DIQMTQSTSSLSASLGDRVTISCSASQGISNYLNWYQQKPDGTVELLIYYTSSLHSGVPSRFSGSGSGTDYSLTISNLEPEDIGTYYCQQYSKLPRTFGGGTKLEIK
In the case of B5, in test [1], the Kd amounted to 0.83 nM, the koff is 0.00029 s⁻¹ and the kon was determined as 160000 M⁻¹ s⁻¹.

B6: <CD138> Hb-Lw (antibody, V domains shown)
VH: QVQLQQSGSELMMPGASVKISCKATGYTFTGYWIEWVKQRPGHGLEWIGEILPGTGRTIYNEKFKGKATFTADISSNTVQMQLSSLTSEDSAVYYCARRDYYGNFYYAMDYWGQGTSVTVSS
VL: DIQMTQSTSSLSASLGDRVTISCSASQGINNYLNWYQQKPDGTVELLIYYTSTLQSGVPSRFSGSGSGTDYSLTISNLEPEDIGTYYCQQYSKLPRTFGGGTKLEIK
In test [1], B6 registered a Kd of 0.28 nM, a koff of 0.00011 s⁻¹ and a kon of 350000 M⁻¹ s⁻¹.

B7: <CD138> Hb-La (antibody, V domains shown)
VH: QVQLQQSGSELMMPGASVKISCKATGYTFTGYWIEWVKQRPGHGLEWIGEILPGTGRTIYNEKFKGKATFTADISSNTVQMQLSSLTSEDSAVYYCARRDYYGNFYYAMDYWGQGTSVTVSS
VL: DIQMTQSTSSLSASLGDRVTISCSASQGINNYLNWYQQKPDGTVELLIYYTSTLHSGVPSRFSGSGSGTDYSLTISNLEPEDIGTYYCQQYSKLPRTFGGGTKLEIK
In [1], B7 registered a Kd of 0.31 nM, a koff of 0.00012 s⁻¹ and a kon of 400000 M⁻¹ s⁻¹.

B8: hCD138 (human Syndecan-1), extracellular domain (domain or fragment)
chain: QIVATNLPPEDQDGSGDDSDNFSGSGAGALQDITLSQQTPSTWKDTQLLTAIPTSPEPTGLEATAASTSTLPAGEGPKEGEAVVLPEVEPGLTAREQEATPRPRETTQLPTTHLASTTTATTAQEPATSHPHRDMQPGHHETSTPAGPSQADLHTPHTEDGGPSATERAAEDGASSQLPAAEGSGEQDFTFETSGENTAVVAVEPDRRNQSPVDQGATGASQGLLDRKEVLG
Regarding B8, the Kd is 240 nM with <CD138> Ha-La; 380 nM with <CD138> Ha-Lg; 190 nM with <CD138> Ha-Lw; 140 nM with <CD138> Hb-La; 610 nM with <CD138> Hb-Lg; 150 nM with <CD138> Hb-Lw. Moreover, the Kd with <CD138> Hw-La was 71 nM; in test [2], 80 nM. Besides, the koff with <CD138> Ha-La stood at 0.013 s⁻¹; with <CD138> Ha-Lg, 0.045 s⁻¹; with <CD138> Ha-Lw it was 0.015 s⁻¹; with <CD138> Hb-La it was 0.025 s⁻¹; in the test with <CD138> Hb-Lg it was 0.079 s⁻¹; with <CD138> Hb-Lw, 0.027 s⁻¹. The koff with <CD138> Hw-La was determined as 0.0061 s⁻¹; in [2] it was 0.0062 s⁻¹. Moreover, the kon with <CD138> Ha-La was found to be 55000 M⁻¹ s⁻¹; with <CD138> Ha-Lg, 120000 M⁻¹ s⁻¹; with <CD138> Ha-Lw, 76000 M⁻¹ s⁻¹; in the test with <CD138> Hb-La it was 170000 M⁻¹ s⁻¹; in the test with <CD138> Hb-Lg, 130000 M⁻¹ s⁻¹; in the test with <CD138> Hb-Lw it was 180000 M⁻¹ s⁻¹. Further, the kon with <CD138> Hw-La was found to be 87000 M⁻¹ s⁻¹; in test [2] it was 77000 M⁻¹ s⁻¹.

B9: hCD138 (human Syndecan-1, R&D Systems 2780-TS) (domain or fragment)
chain: QIVATNLPPEDQDGSGDDSDNFSGSGAGALQDITLSQQTPSTWKDTQLLTAIPTSPEPTGLEATAASTSTLPAGEGPKEGEAVVLPEVEPGLTAREQEATPRPRETTQLPTTHLASTTTATTAQEPATSHPHRDMQPGHHETSTPAGPSQADLHTPHTEDGGPSATERAAEDGASSQLPAAEGSGEQDFTFETSGENTAVVAVEPDRRNQSPVDQGATGASQGLLDRKEVLG
Consider B9, for which the fold reduction of affinity against the parent Hw-Lw with <CD138> Hg-Lw was > 100 fold.
